The supplement of paper PMC9233669
Fewer inactive variants are shown than the library holds.

Key:
biotinyl-Phe-oxazolone = assay: self-aminoacylation, catalytic enhancement (BFO) (fold over background); higher = more active; k-Seq, kA / k0A0; sequences stand for … in GGGAAUGGAUCCACAUCUACGAAUUC…UUCACUGCAGACUUGACGAAGCUG
Summary of the method: (§1)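 Mutagenized RNA pools with a 21-nt variable region (0.43 μM) reacted with each biotinyl-aminoacyl-oxazolone at 2–1250 μM. Reactions ran in 50 μL HEPES/NaCl/KCl/MgCl2/CaCl2 buffer with 5% acetonitrile, pH 6.9–7.0, for 90 minutes at room temperature. Streptavidin-captured RNA was quantified by triplicate qPCR and Illumina sequencing, and per-sequence fraction reacted was fit to a pseudo-first-order model with 1000 bootstraps. Catalytic enhancement is median kA divided by the uncatalyzed rate, the low-activity peak of a bimodal Gaussian fit.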

biotinyl-Met-oxazolone = assay: self-aminoacylation, catalytic enhancement (BMO) (fold over background); higher = more active; k-Seq, kA / k0A0; sequences stand for … in GGGAAUGGAUCCACAUCUACGAAUUC…UUCACUGCAGACUUGACGAAGCUG
Summary of the method: as §1

biotinyl-Val-oxazolone = assay: self-aminoacylation, catalytic enhancement (BVO) (fold over background); higher = more active; k-Seq, kA / k0A0; sequences stand for … in GGGAAUGGAUCCACAUCUACGAAUUC…UUCACUGCAGACUUGACGAAGCUG
Summary of the method: as §1

biotinyl-Ile-oxazolone = assay: self-aminoacylation, catalytic enhancement (BIO) (fold over background); higher = more active; k-Seq, kA / k0A0; sequences stand for … in GGGAAUGGAUCCACAUCUACGAAUUC…UUCACUGCAGACUUGACGAAGCUG
Summary of the method: as §1

biotinyl-Trp-oxazolone = assay: self-aminoacylation, catalytic enhancement (BWO) (fold over background); higher = more active; k-Seq, kA / k0A0; sequences stand for … in GGGAAUGGAUCCACAUCUACGAAUUC…UUCACUGCAGACUUGACGAAGCUG
Summary of the method: as §1

biotinyl-Leu-oxazolone = assay: self-aminoacylation, catalytic enhancement (BLO) (fold over background); higher = more active; k-Seq, kA / k0A0; sequences stand for … in GGGAAUGGAUCCACAUCUACGAAUUC…UUCACUGCAGACUUGACGAAGCUG
Summary of the method: as §1

Sequence	self-aminoacylation (biotinyl-Phe-oxazolone)	self-aminoacylation (biotinyl-Met-oxazolone)	self-aminoacylation (biotinyl-Val-oxazolone)	self-aminoacylation (biotinyl-Ile-oxazolone)	self-aminoacylation (biotinyl-Trp-oxazolone)	self-aminoacylation (biotinyl-Leu-oxazolone)
CUUCACCCAGGUCAUCGGGUG [Fam2.2 aminoacylation ribozyme variant]	25.2	4.41	3.34	2.29	3.73	3.23
AGUACCCUGGCCAUCGAGUGA [Fam2.1 aminoacylation ribozyme variant]	10.2	3.41	3.11	2.53	4.09	4.09
CGACUUCAAACAAUCGCUCUG [Fam1A.1 aminoacylation ribozyme variant]	3.61	1.36	1.24	1.42	3.07	1.42
AUUACCAAGGUCAUCGAGUGA [Fam2.1 aminoacylation ribozyme variant]	43.2	7.64	3.96	3.64	9.76	8.44
AAGUUUGCUAAUAGGCCCAAG [Fam3.1 aminoacylation ribozyme variant]	0.737	0.899	1.23	1.32	1.2	0.847
CUAAUUCAAACAAUCGGUGUG [Fam1A.1 aminoacylation ribozyme variant]	0.924	0.913	0.659	0.75	0.691	1.01
CCACUUCAAACAAUCGGCCUG [Fam1A.1 aminoacylation ribozyme variant]	425	4.68	4.05	4.3	145	7.46
CCACACUUCAAGCAAUCGCUG [Fam1B.1 aminoacylation ribozyme variant]	0.653	1.13	1.12	1.22	0.872	0.928
AUUCCCAUGGUCAUCGAGUGA [Fam2.1 aminoacylation ribozyme variant]	51.4	10.4	5.75	5.75	12.9	11.3
GUACUUCAAACUAUCGGUCUG [Fam1A.1 aminoacylation ribozyme variant]	1.78	1.29	1.26	1.38	1.46	1.14
CUACUUCAAAUAAUGGGUCUG [Fam1A.1 aminoacylation ribozyme variant]	0.624	0.956	0.814	0.875	0.583	1.01
ACUCACCUAGGUCAUUGGGUG [Fam2.2 aminoacylation ribozyme variant]	14.3	2.35	2.56	2.31	3.78	2.91
CUACGUCAAACUAUCGGUCUG [Fam1A.1 aminoacylation ribozyme variant]	5.88	1.95	1.76	1.58	1.58	1.72
AUUACCCUGGUCAUCUAAUGA [Fam2.1 aminoacylation ribozyme variant]	0.963	1.06	0.917	0.967	0.586	0.908
CGACUUCAAACAGUCGGUCUG [Fam1A.1 aminoacylation ribozyme variant]	10	1.71	1.84	1.83	1.98	1.63
UUUAUCCUGGUCAUCGAGUGA [Fam2.1 aminoacylation ribozyme variant]	10.2	8.6	4.7	5.25	11.3	9.68
CUACUUAAAACAAUCGUUCUG [Fam1A.1 aminoacylation ribozyme variant]	0.579	0.592	0.57	0.568	0.503	0.432
AGUACCCUGGUCAUCGAUUGA [Fam2.1 aminoacylation ribozyme variant]	1.09	0.999	0.981	1.09	1.58	1.07
CCAGACUUCAAGCAACCGGUC [Fam1B.1 aminoacylation ribozyme variant]	1.53	0.698	1.36	1.47	2	1.02
CCACACUUUAAGUAAUCGGUC [Fam1B.1 aminoacylation ribozyme variant]	0.978	0.632	0.694	0.653	0.677	0.667
AAUCACUUAGGUCAUCGGGUG [Fam2.2 aminoacylation ribozyme variant]	43	7.21	4.61	5.09	8.45	7.59
AUUCACCAAGGUCACCGGGUG [Fam2.2 aminoacylation ribozyme variant]	55.5	8.25	6.12	5.1	5.09	9.86
AUUUCACUGGUCAUCGAGUGA [Fam2.1 aminoacylation ribozyme variant]	19.9	4.7	2.85	2.99	6.42	4.92
AUUCACCGAGGUCAUAGGGUG [Fam2.2 aminoacylation ribozyme variant]	7.43	2.29	1.91	1.71	2.21	3.17
AUUCACCUAGGUCACGGGGUG [Fam2.2 aminoacylation ribozyme variant]	22.1	4.08	3.03	2.98	4.51	5.76
AUUCAGCUAGGUCAUAGGGUG [Fam2.2 aminoacylation ribozyme variant]	1.15	1.09	1.23	0.975	1.17	1.24
